Measured values: patent publication US20050182242A1, “Global analysis of protein activities using proteome chips” (priority 2001, published 2005)

B1: CMK1: yeast calcium/calmodulin-dependent serine/threonine protein kinase, GST-HisX6 fusion (protein)
chain: MDDKVSEKESSPKQTEEDSEGKMAHVQPASYVNKKKYVFGKTLGAGTFGVVRQAKNTETGEDVAVKILIKKALKGNKVQLEALYDELDILQRLHHPNIVAFKDWFESKDKFYIITQLAKGGELFDRILKKGKFTEEDAVRILVEILSAVKYMHSQNIVHRDLKPENLLYIDKSDESPLVVADFGIAKRLKSDEELLYKPAGSLGYVAPEVLTQDGHGKPCDIWSIGVITYTLLCGYSAFRAERVQDFLDECTTGEYPVKFHRPYWDSVSNKAKQFILKALNLDPSKRPTAAELLEDPWIICTELKTHNLLPGLKEGLDARQKFRNSVERVRLNMKIQKLRDLYLEQTESDSDFDEGSQANGSVPPLKATDTSQLSKKLSEEEQSKLKSELTSKAFAQLVNTVLAEKEKFLNINRVCSSDSDLPGSDIKSLDEAKEKPEGKDTKTEE
modifications: left off: a dimerising Fc or GST
notes: yeast calcium/calmodulin-dependent serine/threonine protein kinase, GST-HisX6 fusion
B2: MY04: yeast class V myosin heavy chain, GST-HisX6 fusion (protein, UniProt P32492 1-1471, looked up)
Myosin-4: MSFEVGTKCWYPHKEQGWIGGEVTKNDFFEGTFHLELKLEDGETVSIETNSFENDDDHPTLPVLRNPPILESTDDLTTLSYLNEPAVLHAIKKRYMNGQIYTYSGIVLIAANPFDKVDHLYSREMIQNYSSKRKDELEPHLFAIAEEAYRFMVHEKANQTVVVSGESGAGKTVSAKYIMRYFASVQESNNREGEVEMSQIESQILATNPIMEAFGNAKTTRNDNSSRFGKYLQILFDENTTIRGSKIRTYLLEKSRLVYQPETERNYHIFYQILEGLPEPVKQELHLSSPKDYHYTNQGGQPNIAGIDEAREYKITTDALSLVGINHETQLGIFKILAGLLHIGNIEMKMTRNDASLSSEEQNLQIACELLGIDPFNFAKWIVKKQIVTRSEKIVTNLNYNQALIARDSVAKFIYSTLFDWLVDNINKTLYDPELDQQDHVFSFIGILDIYGFEHFEKNSFEQFCINYANEKLQQEFNQHVFKLEQEEYVKEEIEWSFIEFSDNQPCIDLIENKLGILSLLDEESRLPSGSDESWASKLYSAFNKPPSNEVFSKPRFGQTKFIVSHYAVDVEYEVEGFIEKNRDSVSLGHLDVFKATTNPIFKQILDNRELRSDDAPEEQNTEKKIMIPARLSQKKPTLGSMFKKSLGELMAIINSTNVHYIRCIKPNSEKKPWEFDNLMVLSQLRACGVLETIRISCAGFPSRWTFDEFVQRYFLLTDYSLWSGILYNPDLPKEAIVNFCQSILDATISDSAKYQIGNTKIFFKAGMLAFLEKLRTNKMNEICIIIQKKIRARYYRLQYLQTMESIKKCQSQIRSLLVRTRVDHELKTRAAILLQTNIRALWKREYYRAAIGQIIKLQCTCKRKLILDSVNRKFMLMAAVIIQSYIRSYGHKTDYRTLKRSSILVQSAMRMQLARRRYIVLQKEVEERNIRASYGIGLLEEAIEFKNSFILNLEMLNDSYTRLTQLLQGDLSNIPSKQRQEYETIVNGYNDKISKLKTLQVEIMNTLNKKNALKERKKKQSSLIQSHMQSLAAIKGNKPSRLSDEVKSMKQELAFIENVIAQDFTTTYSANKNDKVKGLGIAGQQVKPKLVNVIRRESGNPDLLELLMDLNCYTLEVTEGYLKKVNVTEVNGDNVLGPIHVITTVVSSLVRNGLLIQSSKFISKVLLTVESIVMSLPKDETMLGGIFWLSNLSRLPAFAANQKTLYEANGGDEKDKLTLIYLNDLENETLKVFDKIYSTWLVKFMKHASAHIEIFDMVLNEKLFKNSGDEKFAKLFTFLNEFDAVLCKFQVVDSMHTKIFNDTLKYLNVMLFNDLITKCPALNWKYGYEVDRNIERLVSWFEPRIEDVRPNLIQIIQAVKILQLKISNLNEFKLLFDFWYALNPAQIQAILLKYKPANKGEAGVPNEILNYLANVIKRENLSLPGKMEIMLSAQFDSAKNHLRYDTSAITQNSNTEGLATVSKIIKLDRK
modifications: GST-HisX6 tag
notes: yeast class V myosin heavy chain, GST-HisX6 fusion

Assays:
PI(3,4,5)P3 liposomes = test: Yeast proteome chip probed with PI(3,4,5)P3 liposomes; details: liposome binding signal on yeast proteome chip, Cy3-streptavidin detection
PI(3,4)P2 liposomes = test: Yeast proteome chip probed with PI(3,4)P2 liposomes; details: liposome binding signal on yeast proteome chip, Cy3-streptavidin detection
[1] = tested on: phospholipids (phosphatidylinositols vs phosphatidylcholine); test: Proteome chip lipid-binding screen, overall analysis of six liposomes (PI/PC specificity); details: compared with phosphatidylcholine
How it was run: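 Yeast proteome chips probed with PC liposomes carrying 1% biotin DHPE, plus 5% PI(3)P, PI(4)P, PI(3,4)P2, PI(4,5)P2 or PI(3,4,5)P3, 1 h at RT. Binding detected with Cy3/Cy5-streptavidin; PI signals normalized to PC signals, giving PI/PC ratios (>1.3 taken as PI-preferential).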

| Molecule | PI(3, 4, 5)P3 (PI(3,4,5)P3 liposomes) | PI(3, 4)P2 (PI(3,4)P2 liposomes) | preferential binding of particular phosphatidylinositol lipids [1] |
| --- | --- | --- | --- |
| B1 | 699.07 | 1786.71 |  |
| B2 | 51.07 | 171.73 | preferentially binds PI(4,5)P2 |
